The assay deals with T1, leukocyte function antigen-1 (LFA-1), composed of CD11a and CD18, on the surface of white blood cells (human, UniProt P20701 26-1170; P05107 23-769).
T1 construct: whole, on cells; also called CD11a/CD18; wild type form of the receptor
Put plainly: flow cytometry, THP-1 cells mixed with LtxA-FITC for 30 min at 0 C. (In general: In flow cytometry, cells or beads pass a laser one at a time.)

T1 sequence (P20701 26-1170, chain 1 of 2): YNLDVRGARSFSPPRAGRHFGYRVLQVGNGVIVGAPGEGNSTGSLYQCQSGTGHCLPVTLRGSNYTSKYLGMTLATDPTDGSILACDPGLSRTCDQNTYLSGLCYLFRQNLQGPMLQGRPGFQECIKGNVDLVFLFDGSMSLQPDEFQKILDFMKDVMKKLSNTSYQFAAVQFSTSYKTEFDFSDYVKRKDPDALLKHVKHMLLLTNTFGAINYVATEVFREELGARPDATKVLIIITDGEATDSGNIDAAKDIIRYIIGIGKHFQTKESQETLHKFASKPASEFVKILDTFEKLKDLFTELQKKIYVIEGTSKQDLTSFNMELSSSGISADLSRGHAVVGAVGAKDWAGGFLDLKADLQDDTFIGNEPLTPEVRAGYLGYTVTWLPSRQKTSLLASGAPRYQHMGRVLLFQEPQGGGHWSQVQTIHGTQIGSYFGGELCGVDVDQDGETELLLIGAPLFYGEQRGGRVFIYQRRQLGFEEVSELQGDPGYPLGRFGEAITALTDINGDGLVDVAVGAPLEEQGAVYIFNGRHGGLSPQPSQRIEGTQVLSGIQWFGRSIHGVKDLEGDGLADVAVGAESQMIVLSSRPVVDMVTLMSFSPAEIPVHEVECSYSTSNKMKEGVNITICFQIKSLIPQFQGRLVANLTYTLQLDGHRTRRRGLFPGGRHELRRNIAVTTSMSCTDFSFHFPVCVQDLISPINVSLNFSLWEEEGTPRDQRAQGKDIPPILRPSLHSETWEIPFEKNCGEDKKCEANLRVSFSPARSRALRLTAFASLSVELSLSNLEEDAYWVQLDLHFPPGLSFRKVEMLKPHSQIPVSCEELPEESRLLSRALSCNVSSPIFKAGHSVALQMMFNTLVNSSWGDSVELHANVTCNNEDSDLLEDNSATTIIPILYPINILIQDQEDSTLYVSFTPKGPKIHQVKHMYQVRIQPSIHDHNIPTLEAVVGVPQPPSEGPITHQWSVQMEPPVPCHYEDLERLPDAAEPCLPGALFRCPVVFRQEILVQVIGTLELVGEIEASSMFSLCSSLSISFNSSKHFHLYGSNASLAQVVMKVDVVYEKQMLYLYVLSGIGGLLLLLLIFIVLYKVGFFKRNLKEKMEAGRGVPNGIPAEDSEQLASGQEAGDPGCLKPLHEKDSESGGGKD
T1 sequence (P05107 23-769, chain 2 of 2): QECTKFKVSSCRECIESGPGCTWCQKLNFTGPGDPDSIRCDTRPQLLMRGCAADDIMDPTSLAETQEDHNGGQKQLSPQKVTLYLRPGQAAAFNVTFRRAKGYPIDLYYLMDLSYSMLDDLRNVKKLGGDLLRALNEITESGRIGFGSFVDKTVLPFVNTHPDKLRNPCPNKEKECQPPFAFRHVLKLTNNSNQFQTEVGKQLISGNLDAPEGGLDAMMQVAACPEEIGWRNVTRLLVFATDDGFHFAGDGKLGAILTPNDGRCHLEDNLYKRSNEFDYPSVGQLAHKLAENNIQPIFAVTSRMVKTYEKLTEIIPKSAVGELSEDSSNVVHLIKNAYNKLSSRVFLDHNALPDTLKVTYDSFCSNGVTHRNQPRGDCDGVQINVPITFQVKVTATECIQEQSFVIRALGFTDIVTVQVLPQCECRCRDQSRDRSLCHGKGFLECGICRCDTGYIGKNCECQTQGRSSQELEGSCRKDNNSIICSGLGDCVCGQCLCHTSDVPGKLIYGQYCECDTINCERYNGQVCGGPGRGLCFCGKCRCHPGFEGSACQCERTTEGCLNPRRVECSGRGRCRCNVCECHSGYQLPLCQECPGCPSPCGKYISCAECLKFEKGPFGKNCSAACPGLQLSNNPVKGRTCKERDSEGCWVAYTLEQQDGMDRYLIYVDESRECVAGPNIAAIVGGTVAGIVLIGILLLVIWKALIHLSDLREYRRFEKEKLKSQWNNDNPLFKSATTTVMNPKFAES

B1: LtxA covalently labeled with fluorescein isothiocyanate (LtxA-FITC) (other)
chain: MATTSLLNTKQQAAQFANSVADRAKENIDAAKEQLQKALDKLGKTGKKLTLYIKNYKKGNGLTALIKAAQKLGIEVYHEGKDGPALTNGILNTGKKLLGLTERGLTLFAPELDKWIQGNKHLSNSVGSTGNLTKAIDKVQSVLGTLQAFLNTAFSGMDLDALIKARQNGKNVTDVQLAKASLNLINELIGTISSITNNVDTFSKQLNKLGEALGQVKHFGSFGDKLKNLPKLGNLGKGLGALSGVLSAISAALLLANKDADTATKAAAAAELTNKVLGNIGKAITQYLIAQRAAAGLSTTGPVAGLIASVVSLAISPLSFLGIAKQFDRARMLEEYSKRFKKFGYNGDSLLGQFYKNTGIADAAITTINTVLSAIAAGVGAASAGSLVGAPIGLLVSAITSLISGILDASKQAVFEHIANQLADKIKAWENKYGKNYFENGYDARHSAFLEDSLKLFNELREKYKTENILSITQQGWDQRIGELAGITRNGDRIQSGKAYVDYLKKGEELAKHSDKFTKQILDPIKGNIDLSGIKGSTTLTFLNPLLTAGKEERKTRQSGKYEFITELKVKGRTDWKVKGVPNSNGVYDFSNLIQHAVTRDNKVLEARLIANLGAKDDYVFVGSGSTIVNAGDGYDVVDYSKGRTGALTIDGRNATKAGQYKVERDLSGTQVLQETVSKQETKRGKVTDLLEYRNYKLDYYYTNKGFKAHDELNSVEEIIGSTLRDKFYGSKFNDVFHGHDGDDLIYGYDGDDRLYGDNGNDEIHGGQGNDKLYGGAGNDRLFGEYGNNYLDGGEGDDHLEGGNGSDILRGGSGNDKLFGNQGDDLLDGGEGDDQLAGGEGNDIYVYRKEYGHHTITEHSGDKDKLSLANINLKDVSFERNGNDLLLKTNNRTAVTFKGWFSKPNSSAGLDEYQRKLLEYAPEKDRARLKRQFELQRGKVDKSLNNKVEEIIGKDGERITSQDIDNLFDKSGNKKTISPQELAGLIKNKGKSSSLMSSSRSSSMLTQKSGLSNDISRIISATSGFGSSGKALSASPLQTNNNFNSYANSLATTAA
modifications: covalently labeled with fluorescein isothiocyanate (FITC); sites not stated
notes: also called leukotoxin-FITC
Take B1: the binding result was “binds”.

The values above are taken from EP2488198B1 (Rutgers, the State University of New Jersey, dated 2016).
